The chains are these.
B1: WT GPRC5D expressed on HEK293T cells, Q9NZD1 E83A (protein)
chain: MYKDCIESTGDYFLLCDAEGPWGIILESLAILGIVVTILLLLAFLFLMRKIQDCSQWNVLPTQLLFLLSVLGLFGLAFAFIIALNQQTAPVRYFLFGVLFALCFSCLLAHASNLVKLVRGCVSFSWTTILCIAIGCSLLQIIIATEYVTLIMTRGMMFVNMTPCQLNVDFVVLLVYVLFLMALTFFVSKATFCGPCENWKQHGRLIFITVLFSIIIWVVWISMLLRGNPQFQRQPQWDDPVVCIALVTNAWVFLLLYIVPELCILYRSCRQECPLQGNACPVTAYQHSFQVENQELSRARDSDGAEEDVALTSYGTPIQPQTVDPTQECFIPQAKLSPQQDAGGV
B2: WT GPRC5D expressed on HEK293T cells, Q9NZD1 T9A (protein)
chain: B1 chain with T9A, A83E
B3: WT GPRC5D expressed on HEK293T cells, Q9NZD1 S8A (protein)
chain: B1 chain with S8A, A83E
B4: WT GPRC5D expressed on HEK293T cells, Q9NZD1 P235A (protein)
chain: B1 chain with A83E, P235A
B5: WT GPRC5D expressed on HEK293T cells, Q9NZD1 C16A (protein)
chain: B1 chain with C16A, A83E
B6: WT GPRC5D expressed on HEK293T cells, Q9NZD1 L15A (protein)
chain: B1 chain with L15A, A83E
B7: WT GPRC5D expressed on HEK293T cells, Q9NZD1 Q236A (protein)
chain: B1 chain with A83E, Q236A
B8: WT GPRC5D expressed on HEK293T cells, Q9NZD1 S8G; D11G; L15G; C16G; D17G; E83G; L84G; R154G; V159G; N160G; T162G; P163G; L166G; P235G; Q236G (protein)
chain: MYKDCIEGTGGYFLGGGAEGPWGIILESLAILGIVVTILLLLAFLFLMRKIQDCSQWNVLPTQLLFLLSVLGLFGLAFAFIIGGNQQTAPVRYFLFGVLFALCFSCLLAHASNLVKLVRGCVSFSWTTILCIAIGCSLLQIIIATEYVTLIMTGGMMFGGMGGCQGNVDFVVLLVYVLFLMALTFFVSKATFCGPCENWKQHGRLIFITVLFSIIIWVVWISMLLRGNPQFQRQGGWDDPVVCIALVTNAWVFLLLYIVPELCILYRSCRQECPLQGNACPVTAYQHSFQVENQELSRARDSDGAEEDVALTSYGTPIQPQTVDPTQECFIPQAKLSPQQDAGGV
B9: WT GPRC5D expressed on HEK293T cells, Q9NZD1 D11A (protein)
chain: B1 chain with D11A, A83E
B10: WT GPRC5D expressed on HEK293T cells, Q9NZD1 E83G; L84G (protein)
chain: B1 chain with A83G, L84G
B11: WT GPRC5D expressed on HEK293T cells, Q9NZD1 P235G; Q236G (protein)
chain: B1 chain with A83E, P235G, Q236G
B12: WT GPRC5D expressed on HEK293T cells, Q9NZD1 R154G; V159G; N160G; T162G; P163G; L166G (protein)
chain: B1 chain with A83E, R154G, V159G, N160G, T162G, P163G, L166G
B13: WT GPRC5D expressed on HEK293T cells, Q9NZD1 S8G; D11G; L15G; C16G; D17G (protein)
chain: B1 chain with S8G, D11G, L15G, C16G, D17G, A83E

Changes are numbered by the printed parent chain. Names and notes keep the numbering of the source.

The target of one assay is IgG150-18 (scFv150-18 cloned into human IgG format). The experiment in a line: FACS binding assay. To be noted: chain shown with the change; 1nM antibody; parent: est. 8; read off a plot.
Chain of IgG150-18 (scFv150-18 cloned into human IgG format) (chain, as listed by the source, chain 1 of 2): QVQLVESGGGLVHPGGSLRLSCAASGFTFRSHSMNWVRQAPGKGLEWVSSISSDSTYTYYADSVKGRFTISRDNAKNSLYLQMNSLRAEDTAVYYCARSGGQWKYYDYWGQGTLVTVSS
Chain of IgG150-18 (scFv150-18 cloned into human IgG format) (chain, as listed by the source, chain 2 of 2): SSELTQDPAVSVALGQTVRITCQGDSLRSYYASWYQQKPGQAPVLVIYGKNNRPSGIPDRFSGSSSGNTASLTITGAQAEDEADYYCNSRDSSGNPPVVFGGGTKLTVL
Take B1: the percent of parent is 5 % of WT.

For the molecule B2, the percent of parent is 11 % of WT.

As to B3, the percent of parent was 3 % of WT.

The assay is the same for the next values; noted with them: chain shown with the change; 10nM antibody; parent: est. 75; read off a plot.
Take B1: the percent of parent was 72 % of WT.

For B2, the percent of parent was 82 % of WT.

Turning to B4, the percent of parent was 43 % of WT.

B3: the percent of parent was 65 % of WT.

With B5, the percent of parent is 1 % of WT.

As for B6, the percent of parent was 38 % of WT.

As to B7, the percent of parent is 53 % of WT.

Take B8: the percent of parent was 1 % of WT.

Still in this assay, the particulars now being: chain shown with the change; 100nM antibody; parent: est. 100; read off a plot.
Regarding B1, the percent of parent was 95 % of WT.

B2: the percent of parent is 100 % of WT.

As to B4, the percent of parent was 95 % of WT.

Take B3: the percent of parent is 92 % of WT.

Regarding B9, the percent of parent is 42 % of WT.

Turning to B6, the percent of parent is 63 % of WT.

As to B7, the percent of parent was 75 % of WT.

Another assay has the same target. The experiment in a line: FACS assay on cells. To be noted: chain shown with the change; highest antibody concentration point, Log [IgG150_18] (M) about -7.5; parent: est. 100; read off a plot. Background: Flow cytometry measures light scatter and fluorescence of single cells or particles in a stream.
B10: the percent of parent was 97 % of WT.

As to B11, the percent of parent is 100 % of WT.

On to B12, for which the percent of parent was 82 % of WT.

On to B13, for which the percent of parent was 3 % of WT.

On to B8, for which the percent of parent is 12 % of WT.

The record behind these values is article PMC11187071.
